The target in one test is T1, FcγR3A (CD16aV158) (human, UniProt P08637 17-254).
T1 construct: whole, on cells
The test is described as follows: cell binding, FcγR-engineered HEK293 cells.

The next test addresses T2, FcγR1 (CD64) (human, UniProt P12314 16-374).
T2 construct: whole, on cells
Put plainly: cell binding, FcγR-engineered HEK293 cells.

Test [1] concerns the target T3, human SIRPα v1-Fc (SIRPα1 extracellular domain fused to human IGHG1_Fc) (human, UniProt P78324 31-373; P0DOX5 223-449 = IgG part).
T3 construct: also called V1 (e.g. SIRPα1); SIRPα V1: DLN
The test is described as follows: BLI Octet, antigen-Fc on biosensor.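 Further: antigen captured on the biosensor tip and then immersed in solutions of the test antibodies, which act as the analyte.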 On the technique in general: BLI is a label-free optical method that tracks binding on a fibre tip over time.

Test [2] concerns the target T4, human SIRPα v5-Fc (SIRPα5 extracellular domain fused to human IGHG1_Fc) (human, UniProt P78324 31-373; P0DOX5 223-449 = IgG part).
T4 construct: as m38; also called V5 (e.g. SIRPα5)
The test is described as follows: BLI Octet, antigen-Fc on biosensor.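 Further: antigen captured on the biosensor tip and then immersed in solutions of the test antibodies, which act as the analyte.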

The next test addresses T5, human SIRPγ-Fc (human).
T5 construct: a signal peptide may be part of the entry
Put plainly: BLI Octet, antigen-Fc on biosensor.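 Further: antigen captured on the biosensor tip and then immersed in solutions of the test antibodies, which act as the analyte.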

The target in test [3] is T6, human SIRPα v4-Fc (SIRPα4 extracellular domain fused to human IGHG1_Fc) (human, UniProt P78324 31-373; P0DOX5 223-449 = IgG part).
T6 construct: as m38; also called V4 (e.g. SIRPα4)
The test is described as follows: BLI Octet, antigen-Fc on biosensor.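 Further: antigen captured on the biosensor tip and then immersed in solutions of the test antibodies, which act as the analyte.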

The target in test [4] is T7, human SIRPα v3-Fc (SIRPα3 extracellular domain fused to human IGHG1_Fc) (human, UniProt P78324 31-373; P0DOX5 223-449 = IgG part).
T7 construct: as m38; also called V3 (e.g. SIRPα3)
The test is described as follows: BLI Octet, antigen-Fc on biosensor.

The next test deals with T8, mouse SIRPα-Fc (mouse).
T8 construct: a signal peptide may be part of the entry; also called Ms; Ms SIRPα-Fc
T8 sequence (chain, as listed by the source limits assumed): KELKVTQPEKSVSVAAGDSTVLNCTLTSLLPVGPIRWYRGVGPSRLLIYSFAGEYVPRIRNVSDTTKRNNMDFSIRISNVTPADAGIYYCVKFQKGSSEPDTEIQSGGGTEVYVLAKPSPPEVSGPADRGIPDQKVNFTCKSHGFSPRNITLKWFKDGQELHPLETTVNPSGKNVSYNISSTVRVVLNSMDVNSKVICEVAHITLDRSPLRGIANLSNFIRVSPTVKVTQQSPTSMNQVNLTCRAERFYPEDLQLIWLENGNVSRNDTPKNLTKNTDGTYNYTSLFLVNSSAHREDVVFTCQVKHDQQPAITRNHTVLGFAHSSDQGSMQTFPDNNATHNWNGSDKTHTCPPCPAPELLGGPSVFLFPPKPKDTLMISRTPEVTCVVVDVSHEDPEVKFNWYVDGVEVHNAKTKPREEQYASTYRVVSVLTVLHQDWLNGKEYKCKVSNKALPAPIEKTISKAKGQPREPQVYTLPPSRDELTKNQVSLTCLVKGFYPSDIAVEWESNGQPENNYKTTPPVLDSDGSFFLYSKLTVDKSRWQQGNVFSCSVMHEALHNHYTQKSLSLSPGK
The test is described as follows: BLI Octet, antigen-Fc on biosensor.

Another test addresses T9, cyno SIRPα-Fc (cynomolgus).
T9 construct: a signal peptide may be part of the entry
Put plainly: BLI Octet, antigen-Fc on biosensor.

The target of a further test is T10, human SIRPβ-Fc (human).
T10 construct: a signal peptide may be part of the entry
Put plainly: BLI Octet, antigen-Fc on biosensor.

Test [5] concerns the target T11, human SIRPα v2-Fc (SIRPα2 extracellular domain fused to human IGHG1_Fc) (human, UniProt P78324 31-373; P0DOX5 223-449 = IgG part).
T11 construct: as m38; also called V2 (e.g. SIRPα2); SIRPα V2:ESE
Put plainly: BLI Octet, antigen-Fc on biosensor.

The target of test [6] is T12, human SIRPα v6-Fc (SIRPα6 extracellular domain fused to human IGHG1_Fc) (human, UniProt P78324 31-373; P0DOX5 223-449 = IgG part).
T12 construct: as m38; also called V6 (e.g. SIRPα6)
Put plainly: BLI Octet, antigen-Fc on biosensor.

A further test deals with T13, human SIRPα on cells (human, UniProt P78324 31-504).
T13 construct: whole, on cells; also called human SIRPα-CHO; Hu SIRPα-CHO-K1
Put plainly: cell binding, Hu SIRPα-CHO-K1 cells, 100 nM antibody.

Test [7] has as its target T14, cynomolgus SIRPα on cells (cynomolgus, UniProt P78324 31-373 (human entry)).
T14 construct: also called cyno SIRPα-CHO; Cyno SIRPα-CHO-K1; not shown: Transmembrane and cytoplasmic region of cynomolgus SIRPα
T14 chain: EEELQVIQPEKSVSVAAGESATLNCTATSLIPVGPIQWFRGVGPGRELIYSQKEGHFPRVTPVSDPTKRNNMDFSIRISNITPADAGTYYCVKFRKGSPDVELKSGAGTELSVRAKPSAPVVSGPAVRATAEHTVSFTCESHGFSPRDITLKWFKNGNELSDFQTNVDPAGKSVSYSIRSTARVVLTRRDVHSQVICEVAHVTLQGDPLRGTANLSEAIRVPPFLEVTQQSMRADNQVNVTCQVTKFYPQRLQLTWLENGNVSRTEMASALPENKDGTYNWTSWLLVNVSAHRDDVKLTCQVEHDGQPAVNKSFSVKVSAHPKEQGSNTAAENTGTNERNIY
Put plainly: cell binding, Cyno SIRPα-CHO-K1 cells, 100 nM antibody.

Numbering of substitutions follows the chain as printed.

The values that follow come from patent publication US20200102387A1 (CELGENE, published 2020).

The term EC50 denotes the concentration that produces a half-maximal response. As a reminder, the Kd is the free concentration of one partner at which half of the binding sites on the other are occupied at equilibrium, for simple one-to-one binding. A low value points to tighter binding. As a reminder, the koff is the first-order rate constant of dissociation. A word on the kon: it is a measure of how fast the partners come together. A high value points to faster complex formation.

T2 sequence (P12314 16-374): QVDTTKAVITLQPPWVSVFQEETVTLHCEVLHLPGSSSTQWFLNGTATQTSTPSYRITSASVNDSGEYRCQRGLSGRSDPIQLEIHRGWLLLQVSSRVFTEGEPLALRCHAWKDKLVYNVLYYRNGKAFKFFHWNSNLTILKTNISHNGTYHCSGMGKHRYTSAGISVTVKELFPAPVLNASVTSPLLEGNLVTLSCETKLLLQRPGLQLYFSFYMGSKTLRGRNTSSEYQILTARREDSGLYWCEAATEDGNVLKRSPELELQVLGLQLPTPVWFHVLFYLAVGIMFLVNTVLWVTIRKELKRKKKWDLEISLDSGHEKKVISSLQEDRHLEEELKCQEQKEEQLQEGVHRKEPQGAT
T1 sequence (P08637 17-254 F176V): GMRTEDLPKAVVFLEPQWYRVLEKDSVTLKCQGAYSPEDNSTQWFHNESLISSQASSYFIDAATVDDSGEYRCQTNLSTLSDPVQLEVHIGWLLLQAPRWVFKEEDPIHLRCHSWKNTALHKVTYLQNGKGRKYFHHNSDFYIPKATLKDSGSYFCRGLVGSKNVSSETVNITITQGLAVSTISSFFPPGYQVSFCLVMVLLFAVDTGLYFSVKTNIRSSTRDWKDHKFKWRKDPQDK

B1: SIRPAB-11-AAS (antibody, human IgG1, kappa, L234A L235A)
light: DIQMTQSPSSVSASVGDRVTITCRASQGISSWLAWYQQKPGKAPKLLIYAASNLQSGVPSRFSGSGSGTDFTLTISSLQPEDFATYYCQQGASFPITFGGGTKVEIKRTVAAPSVFIFPPSDEQLKSGTASVVCLLNNFYPREAKVQWKVDNALQSGNSQESVTEQDSKDSTYSLSSTLTLSKADYEKHKVYACEVTHQGLSSPVTKSFNRGEC
heavy: QVQLVQSGAEVKKPGASVKVSCKASGYTFRGYGISWVRQAPGQGLEWMGWISAYGGETNYAQKLQGRVTMTTDTSTSTAYMELRSLRSDDTAVYYCAREAGSSWYDFDLWGRGTLVTVSSASTKGPSVFPLAPSSKSTSGGTAALGCLVKDYFPEPVTVSWNSGALTSGVHTFPAVLQSSGLYSLSSVVTVPSSSLGTQTYICNVNHKPSNTKVDKKVEPKSCDKTHTCPPCPAPEAAGGPSVFLFPPKPKDTLMISRTPEVTCVVVSVSHEDPEVKFNWYVDGVEVHNAKTKPREEQYNSTYRVVSVLTVLHQDWLNGKEYKCKVSNKALPAPIEKTISKAKGQPREPQVYTLPPSREEMTKNQVSLTCLVKGFYPSDIAVEWESNGQPENNYKTTPPVLDSDGSFFLYSKLTVDKSRWQQGNVFSCSVMHEALHNHYTQKSLSLSPGK
notes: also called SIRPAB-11-IgG1-AAS
As for B1, the figures for the 50% effective concentration (EC50) in the test with FcγR3A (CD16aV158) and in the test with FcγR1 (CD64) were 15100 nM and 3180 nM, respectively.

B2: SIRPAB-9 (antibody, human IgG1, kappa, V domains shown)
VH: QVQLVQSGAEVKKPGASVKVSCKASGYTFGGYGISWVRQAPGQGLEWMGWISAYGGETNYAQKLQGRVTMTTDTSTSTAYMELRSLRSDDTAVYYCAREAGSSWYDFDLWGRGTLVTVSS
VL: DIQMTQSPSSVSASVGDRVTITCRASQGISSWLAWYQQKPGKAPKLLIYAASNLQSGVPSRFSGSGSGTDFTLTISSLQPEDFATYYCQQGASFPITFGGGTKVEIKR
For B2, the Kd in test [1] is 0.714 nM; in test [2], 4.75 nM; in the test with human SIRPγ-Fc, 1.37 nM; in test [3], 7.69 nM; in test [4], 0.53 nM; with cyno SIRPα-Fc it was 18.8 nM. Moreover, the Kd in the test with human SIRPβ-Fc was determined as 2.79 nM; in [5] it was 23 nM; in test [6] it was 1.56 nM. In addition, the koff in test [1] turned out to be 0.000757 s⁻¹; in test [2], 0.00462 s⁻¹; in the test with human SIRPγ-Fc it was 0.00161 s⁻¹; in test [3], 0.00777 s⁻¹; in test [4] it was 0.000515 s⁻¹; with cyno SIRPα-Fc, 0.0212 s⁻¹. Besides, the koff with human SIRPβ-Fc turned out to be 0.00284 s⁻¹; in test [5], 0.0185 s⁻¹; in [6], 0.00182 s⁻¹. Also, the kon in [1] is 1.06e+06 M⁻¹ s⁻¹; in test [2] it was 970000 M⁻¹ s⁻¹; with human SIRPγ-Fc it was 1.17e+06 M⁻¹ s⁻¹; in test [3] it was 1.01e+06 M⁻¹ s⁻¹; in [4], 980000 M⁻¹ s⁻¹; with cyno SIRPα-Fc, 1.13e+06 M⁻¹ s⁻¹. In addition, the kon with human SIRPβ-Fc was 1.02e+06 M⁻¹ s⁻¹; in test [5], 810000 M⁻¹ s⁻¹; in [6] it was 1.17e+06 M⁻¹ s⁻¹. Moreover, the binding result with mouse SIRPα-Fc was “no binding”. Further, the “fold increase over background (100 nM)” value with human SIRPα on cells is 2650 fold; in [7], 2300 fold.

B3: SIRPAB-8 (antibody, human IgG1, kappa, V domains shown)
VH: B2 VH with G30T, G31S, A53P, G55N, E57N
VL: B2 VL
In test [4], B3 gave a Kd of 22.3 nM, a koff of 0.0226 s⁻¹ and a kon of 1.02e+06 M⁻¹ s⁻¹. Further, the binding result in the test with mouse SIRPα-Fc is on record as “no binding”. Also, the binding result in test [5] was “no binding”. Also, in the test with human SIRPα on cells, the “fold increase over background (100 nM)” value turned out to be 1310 fold. Also, the “fold increase over background (100 nM)” value in test [7] is 1020 fold.

B4: SIRPAB-10 (antibody, human IgG1, kappa, V domains shown)
VH: B2 VH with G30T, G33P, S52Y, E57N
VL: B2 VL
In the case of B4, the Kd in [1] was found to be 0.25 nM; in test [2], 1.58 nM; with human SIRPγ-Fc, 0.85 nM; in test [3] it was 1.93 nM; in test [4] it was 0.21 nM; with cyno SIRPα-Fc, 4.89 nM. Also, the results for the Kd (in the test with human SIRPβ-Fc; in test [5]; in [6]) were 0.34 nM, 1.06 nM and 0.38 nM, respectively. Also, the koff in [1] was determined as 0.000345 s⁻¹; in test [2] it was 0.00178 s⁻¹; with human SIRPγ-Fc, 0.00123 s⁻¹; in [3], 0.00267 s⁻¹; in test [4], 0.000261 s⁻¹; in the test with cyno SIRPα-Fc it was 0.00683 s⁻¹. In addition, the koff turned out to be 0.000477 s⁻¹ with human SIRPβ-Fc, 0.00132 s⁻¹ in test [5] and 0.000491 s⁻¹ in [6]. In addition, the on-rate constant (kon) in test [1] was found to be 1.4e+06 M⁻¹ s⁻¹; in test [2], 1.13e+06 M⁻¹ s⁻¹; with human SIRPγ-Fc, 1.45e+06 M⁻¹ s⁻¹; in test [3], 1.38e+06 M⁻¹ s⁻¹; in [4], 1.24e+06 M⁻¹ s⁻¹; with cyno SIRPα-Fc it was 1.4e+06 M⁻¹ s⁻¹. In addition, the kon with human SIRPβ-Fc was found to be 1.4e+06 M⁻¹ s⁻¹; in [5], 1.25e+06 M⁻¹ s⁻¹; in test [6], 1.28e+06 M⁻¹ s⁻¹. Further, the binding result with mouse SIRPα-Fc is “no binding”. Moreover, the “fold increase over background (100 nM)” value amounted to 1170 fold with human SIRPα on cells and 1070 fold in test [7].

B5: SIRPAB-7 (antibody, human IgG1, kappa, V domains shown)
VH: QVQLQESGPGLVKPSQTLSLTCTVSGGSISSGEYYWEWIRQHPGKGLEWIGYIYSSGFTYYNPSLKSRVTISVDTSKNQFSLKLSSVTAADTAVYYCAREGLDGSYGSSAWGQGTLVTVSS
VL: DIQLTQSPSSLSASVGDRVTITCQASQDISNYLNWYQQKPGKAPKLLIYDASNLETGVPSRFSGSGSGTDFTFTISSLQPEDIATYYCQQFAYLPYTFGGGTKVEIKR
Turning to B5, the Kd came to 0.15 nM in test [1]; 0.66 nM in test [2]; 0.1 nM with human SIRPγ-Fc; 0.95 nM in test [3]; 10.2 nM in test [4]; 4.59 nM with cyno SIRPα-Fc. Besides, the Kd in the test with human SIRPβ-Fc is 2.56 nM; in test [5], 13.2 nM; in test [6], 12.2 nM. The koff is 0.000271 s⁻¹ in test [1]; 0.00143 s⁻¹ in test [2]; 0.0002 s⁻¹ with human SIRPγ-Fc; 0.00165 s⁻¹ in test [3]; 0.00718 s⁻¹ in test [4]; 0.00546 s⁻¹ with cyno SIRPα-Fc. Also, the results for the off-rate constant (koff) (in the test with human SIRPβ-Fc; in test [5]; in test [6]) were 0.00391 s⁻¹, 0.00956 s⁻¹ and 0.0111 s⁻¹, respectively. In addition, the kon in test [1] is 1.84e+06 M⁻¹ s⁻¹; in test [2], 2.17e+06 M⁻¹ s⁻¹; with human SIRPγ-Fc, 1.94e+06 M⁻¹ s⁻¹; in test [3], 1.74e+06 M⁻¹ s⁻¹; in [4], 702000 M⁻¹ s⁻¹; with cyno SIRPα-Fc it was 1.19e+06 M⁻¹ s⁻¹. For the same molecule, the kon in the test with human SIRPβ-Fc amounted to 1.53e+06 M⁻¹ s⁻¹; in [5], 730000 M⁻¹ s⁻¹; in [6] it was 907000 M⁻¹ s⁻¹. The “fold increase over background (100 nM)” value with human SIRPα on cells turned out to be 2100 fold; in test [7], 2390 fold.
